Measurements published in the supplement of paper PMC9112550, “Optimization of the antimicrobial peptide Bac7 by deep mutational scanning” (BMC Biology, 2022).

test system: Escherichia coli TOP10; assay: shrunken log2 fold change of peptide-encoding DNA abundance (4.5 h post-induction vs induction); higher = less antimicrobial activity (less host growth inhibition); conditions: time post-induction: 4.5 h; library: site-saturation at positions 5, 18, 19, 20
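Also: peptides expressed intracellularly from a pBAD plasmid library in pooled LB shake-flask culture, induced with 0.3% L-arabinose, DNA abundance read by NGS, three biological replicates, DESeq2 with apeglm shrinkage.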

Sequence | shrunken log2 fold change
RRIRSRPPRLPRPRPRPSDMPRP | -0.373
RRIRSRPPRLPRPRPRPSENPRP | -0.113
RRIRSRPPRLPRPRPRPSEQPRP | -0.0884
RRIRSRPPRLPRPRPRPSGFPRP | 0.0519
RRIRSRPPRLPRPRPRPSGMPRP | -0.311
RRIRSRPPRLPRPRPRPSHMPRP | -0.993
RRIRSRPPRLPRPRPRPSHQPRP | -0.284
RRIRSRPPRLPRPRPRPSKIPRP | -0.378
RRIRSRPPRLPRPRPRPSLLPRP | -0.146
RRIRSRPPRLPRPRPRPSMGPRP | -0.0521
RRIRSRPPRLPRPRPRPSMMPRP | -0.105
RRIRSRPPRLPRPRPRPSMRPRP | 0.369
RRIRSRPPRLPRPRPRPSPAPRP | 0.242
RRIRSRPPRLPRPRPRPSQEPRP | -0.26
RRIRSRPPRLPRPRPRPSQGPRP | -0.252
RRIRSRPPRLPRPRPRPSQLPRP | -0.302
RRIRSRPPRLPRPRPRPSQSPRP | -0.242
RRIRSRPPRLPRPRPRPSRAPRP | 0.281
RRIRSRPPRLPRPRPRPSSNPRP | -0.872
RRIRSRPPRLPRPRPRPSTYPRP | -0.405
RRIRSRPPRLPRPRPRPSVMPRP | -0.391
RRIRSRPPRLPRPRPRPSWHPRP | -0.206
RRIRSRPPRLPRPRPRPSWSPRP | -0.0102
RRIRSRPPRLPRPRPRPSYFPRP | -0.687
RRIRSRPPRLPRPRPRPTAPPRP | 0.317

Sequence | shrunken log2 fold change
RRIRSRPPRLPRPRPRPTDIPRP | -0.489
RRIRSRPPRLPRPRPRPTEIPRP | -0.0163
RRIRSRPPRLPRPRPRPTFQPRP | 0.0282
RRIRSRPPRLPRPRPRPTGGPRP | 0.259
RRIRSRPPRLPRPRPRPTGWPRP | 1.01
RRIRSRPPRLPRPRPRPTHHPRP | 0.189
RRIRSRPPRLPRPRPRPTIYPRP | -0.405
RRIRSRPPRLPRPRPRPTLYPRP | 0.0585
RRIRSRPPRLPRPRPRPTNTPRP | 0.0794
RRIRSRPPRLPRPRPRPTPDPRP | 0.441
RRIRSRPPRLPRPRPRPTPGPRP | 0.451
RRIRSRPPRLPRPRPRPTPMPRP | 0.61
RRIRSRPPRLPRPRPRPTPYPRP | -0.26
RRIRSRPPRLPRPRPRPTQLPRP | 0.249
RRIRSRPPRLPRPRPRPTQYPRP | -0.0116
RRIRSRPPRLPRPRPRPTRTPRP | 0.386
RRIRSRPPRLPRPRPRPTSAPRP | 0.321
RRIRSRPPRLPRPRPRPTTHPRP | 0.0655
RRIRSRPPRLPRPRPRPTTQPRP | 0.22
RRIRSRPPRLPRPRPRPTTRPRP | 0.222
RRIRSRPPRLPRPRPRPTVFPRP | 0.222
RRIRSRPPRLPRPRPRPTWIPRP | -0.38
RRIRSRPPRLPRPRPRPTYRPRP | -0.195
RRIRSRPPRLPRPRPRPVAPPRP | 0.397
RRIRSRPPRLPRPRPRPVCRPRP | 0.199

Sequence | shrunken log2 fold change
RRIRSRPPRLPRPRPRPVDMPRP | 0.0294
RRIRSRPPRLPRPRPRPVDVPRP | 0.126
RRIRSRPPRLPRPRPRPVEPPRP | -0.0608
RRIRSRPPRLPRPRPRPVERPRP | 0.187
RRIRSRPPRLPRPRPRPVETPRP | 0.00492
RRIRSRPPRLPRPRPRPVIGPRP | 0.0912
RRIRSRPPRLPRPRPRPVITPRP | -0.0353
RRIRSRPPRLPRPRPRPVKMPRP | 0.0674
RRIRSRPPRLPRPRPRPVLHPRP | -0.201
RRIRSRPPRLPRPRPRPVMYPRP | -0.0786
RRIRSRPPRLPRPRPRPVNLPRP | -0.0294
RRIRSRPPRLPRPRPRPVQQPRP | -0.00468
RRIRSRPPRLPRPRPRPVRYPRP | 0.0544
RRIRSRPPRLPRPRPRPVSAPRP | 2.53
RRIRSRPPRLPRPRPRPVVDPRP | 0.125
RRIRSRPPRLPRPRPRPVVEPRP | 0.13
RRIRSRPPRLPRPRPRPVWYPRP | 0.154
RRIRSRPPRLPRPRPRPWEVPRP | 0.188
RRIRSRPPRLPRPRPRPWHYPRP | -0.162
RRIRSRPPRLPRPRPRPWKKPRP | -0.162
RRIRSRPPRLPRPRPRPWKQPRP | -0.00145
RRIRSRPPRLPRPRPRPWKWPRP | 0.0473
RRIRSRPPRLPRPRPRPWLIPRP | -0.0422
RRIRSRPPRLPRPRPRPWMFPRP | -0.0604
RRIRSRPPRLPRPRPRPWPEPRP | 0.519

Sequence | shrunken log2 fold change
RRIRSRPPRLPRPRPRPWREPRP | 0.0924
RRIRSRPPRLPRPRPRPWRSPRP | 0.00174
RRIRSRPPRLPRPRPRPWSIPRP | 0.0338
RRIRSRPPRLPRPRPRPWSRPRP | -0.199
RRIRSRPPRLPRPRPRPWTAPRP | -0.22
RRIRSRPPRLPRPRPRPWTNPRP | -0.0183
RRIRSRPPRLPRPRPRPWVGPRP | -0.452
RRIRSRPPRLPRPRPRPWVVPRP | -0.00703
RRIRSRPPRLPRPRPRPYCQPRP | -0.164
RRIRSRPPRLPRPRPRPYCVPRP | -0.912
RRIRSRPPRLPRPRPRPYDLPRP | -0.261
RRIRSRPPRLPRPRPRPYEHPRP | -0.493
RRIRSRPPRLPRPRPRPYFFPRP | -0.682
RRIRSRPPRLPRPRPRPYFYPRP | -0.695
RRIRSRPPRLPRPRPRPYHTPRP | -0.652
RRIRSRPPRLPRPRPRPYKGPRP | -0.186
RRIRSRPPRLPRPRPRPYLLPRP | -0.613
RRIRSRPPRLPRPRPRPYNEPRP | -0.554
RRIRSRPPRLPRPRPRPYPTPRP | -0.234
RRIRSRPPRLPRPRPRPYPWPRP | -0.591
RRIRSRPPRLPRPRPRPYQRPRP | -0.103
RRIRSRPPRLPRPRPRPYQVPRP | -0.0683
RRIRSRPPRLPRPRPRPYRFPRP | -0.134
RRIRSRPPRLPRPRPRPYRVPRP | -0.0218
RRIRSRPPRLPRPRPRPYSIPRP | -0.376

Sequence | shrunken log2 fold change
RRIRSRPPRLPRPRPRPYSVPRP | -0.582
RRIRSRPPRLPRPRPRPYTEPRP | -0.186
RRIRSRPPRLPRPRPRPYTMPRP | -0.19
RRIRSRPPRLPRPRPRPYVWPRP | -0.332
RRIRSRPPRLPRPRPRPYWAPRP | -0.177
RRIRSRPPRLPRPRPRPYWCPRP | -0.161
RRIRSRPPRLPRPRPRPYWYPRP | -1.45
RRIRSRPPRLPRPRPRPYYGPRP | -0.197
RRIRSRPPRLPRPRPRPYYIPRP | -0.461
RRIRTRPPRLPRPRPRPAAMPRP | 0.154
RRIRTRPPRLPRPRPRPACEPRP | 0.0463
RRIRTRPPRLPRPRPRPADGPRP | -0.0563
RRIRTRPPRLPRPRPRPADPPRP | 0.0203
RRIRTRPPRLPRPRPRPAEKPRP | 0.0882
RRIRTRPPRLPRPRPRPAFKPRP | 0.143
RRIRTRPPRLPRPRPRPAFSPRP | 0.193
RRIRTRPPRLPRPRPRPAFWPRP | 0.26
RRIRTRPPRLPRPRPRPAGLPRP | 0.0286
RRIRTRPPRLPRPRPRPAHHPRP | -0.0336
RRIRTRPPRLPRPRPRPAHYPRP | -0.227
RRIRTRPPRLPRPRPRPAIAPRP | 0.101
RRIRTRPPRLPRPRPRPALKPRP | 0.206
RRIRTRPPRLPRPRPRPAMCPRP | 0.131
RRIRTRPPRLPRPRPRPAMEPRP | -0.0176
RRIRTRPPRLPRPRPRPAMQPRP | -0.00933

Sequence | shrunken log2 fold change
RRIRTRPPRLPRPRPRPATKPRP | 0.0756
RRIRTRPPRLPRPRPRPATSPRP | -0.12
RRIRTRPPRLPRPRPRPAWQPRP | -0.0092
RRIRTRPPRLPRPRPRPAWVPRP | 0.285
RRIRTRPPRLPRPRPRPAYSPRP | 0.0215
RRIRTRPPRLPRPRPRPCAGPRP | -0.0463
RRIRTRPPRLPRPRPRPCAHPRP | -0.209
RRIRTRPPRLPRPRPRPCCAPRP | 0.125
RRIRTRPPRLPRPRPRPCCGPRP | 0.635
RRIRTRPPRLPRPRPRPCCNPRP | -0.282
RRIRTRPPRLPRPRPRPCCQPRP | 0.0313
RRIRTRPPRLPRPRPRPCDKPRP | -0.138
RRIRTRPPRLPRPRPRPCEVPRP | 0.0427
RRIRTRPPRLPRPRPRPCGGPRP | 0.169
RRIRTRPPRLPRPRPRPCHDPRP | -0.215
RRIRTRPPRLPRPRPRPCHSPRP | -0.039
RRIRTRPPRLPRPRPRPCHVPRP | -0.114
RRIRTRPPRLPRPRPRPCIGPRP | -0.0176
RRIRTRPPRLPRPRPRPCIMPRP | -0.2
RRIRTRPPRLPRPRPRPCINPRP | -0.686
RRIRTRPPRLPRPRPRPCITPRP | -0.96
RRIRTRPPRLPRPRPRPCKDPRP | 0.027
RRIRTRPPRLPRPRPRPCKLPRP | -0.858
RRIRTRPPRLPRPRPRPCKWPRP | -0.000493
RRIRTRPPRLPRPRPRPCLFPRP | -0.16
